Positions count from the first letter of the chain named. Read-outs that look alike come from different tables or passages of the source. Blank lines part the entries; values can stand above or below the binder they belong to.
Legend:
[1] = biological target: T1, human DLL4 extracellular domain (human, UniProt Q9NR61 27-529); experiment: Biacore SPR
T1 construct: extracellular domain; coated on plates in the sVEGFR1 assay; also called huDLL4 ECD; Human DLL4 ECD
Experimental: (§1) The BIACORE® surface plasmon resonance assay (Biacore, Inc., Piscataway, N.J., US) determines the affinity of antibodies with kinetic measurements of on-rate and off-rate constants. Binding of DLL4 antibodies to a purified recombinant DLL4 extracellular domain is determined by surface plasmon resonance-based measurements with a Biacore® instrument (either a Biacore 2000, Biacore 3000, or Biacore T100, GE Healthcare, Piscataway, N.J. US) using running buffer HBS-EPB (10 mM HEPES [pH 7.4], 150 mM NaCl, 3 mM EDTA, 0.1 mg/ml BSA and 0.005% surfactant P20) at 25° C. For example, approximately 9000 RU of goat anti-human Fc specific polyclonal antibody (Thermo Fisher Scientific Inc., Rockford, Ill., US) diluted in 10 mM sodium acetate (pH 4.5) is directly immobilized across a CM5 research grade biosensor chip using a standard amine coupling kit according to manufacturer's instructions and procedures at 25 μg/ml. Unreacted moieties on the biosensor surface are blocked with ethanolamine. For kinetic analysis, rate equations derived from the 1:1 Langmuir binding model are fitted simultaneously to multiple antigen injections (using global fit analysis) with the use of Scrubber 2 (BioLogic Software). […] The equilibrium dissociation constant KD (M) of the reaction between antibodies and the target antigen is then calculated from the kinetic rate constants by the following formula: KD=Koff/Kₒₙ. Binding is recorded as a function of time and kinetic rate constants are calculated. In this assay, on-rates as fast as 10⁶ M⁻¹s⁻¹ and off-rates as slow as 10⁻⁶ s⁻¹ can be measured.

[2] = biological target: T2, mouse DLL4 extracellular domain (mouse, UniProt Q9JI71 27-532); experiment: Biacore SPR
T2 construct: extracellular domain; also called muDLL4 ECD; Mouse DLL4 ECD
Experimental: as §1

[3] = biological target: T3, human DLL4-his (human, UniProt Q9NR61 27-529); experiment: ELISA on DLL4-his
T3 construct: extracellular domain
Experimental: (§2) After the final wash, plates were incubated with 100 μl/well ELISA substrate (Sigma # T8665). The reaction was stopped after 8 minutes at 25° C. with 100 μl/well 1N HCl and the absorbance was read at 450 nm. Data were analyzed using Graphpad Prism software and EC50 values were reported.

[4] = biological target: T4, mouse DLL4-his (mouse, UniProt Q9JI71 27-532); experiment: ELISA on DLL4-his
T4 construct: extracellular domain; not shown: his tag

[5] = biological target: T5, mouse DLL4 on the cell surface (mouse, UniProt Q9JI71 27-686); experiment: FACS on DLL4 cells
T5 construct: whole, on cells; also called HEK293-mDLL4; mDLL4-293G
Experimental: (§3) Stable cell lines overexpressing cell-surface DLL4 were harvested from tissue culture flasks, washed four times and resuspended in phosphate buffered saline (PBS) containing 1% bovine serum albumin and 1 mM CaCl₂ (FACS buffer), 1.5×10³ cells were incubated with antibodies at various concentrations in FACS buffer for 60 minutes on ice. Cells were washed twice and 50 μL of R-phycoerythrin-conjugated anti-rat IgG. […] Following an incubation on ice (4° C., 60 minutes), cells were washed three times and resuspended in FACS buffer. Fluorescence was measured using a Becton Dickinson FACSCalibur-HTS (Becton Dickinson, San Jose. Calif., US). Data were analyzed using Graphpad Prism software and EC₅₀ values were reported as the concentration of antibody to achieve 50% of maximal DLL4 antibodies binding to DLL4 expressing cells.

[6] = biological target: T6, human DLL4 on the cell surface (human, UniProt Q9NR61 27-685); experiment: FACS on DLL4 cells
T6 construct: whole, on cells; also called HEK293-hDLL4; hDLL4-293G
Experimental: as §3

[7] = biological target: T5, mouse DLL4 on the cell surface; experiment: competition FACS, competitor huNotch-1
Experimental: (§4) Notch blocking assay: Briefly, stable cell lines overexpressing cell-surface DLL4 were harvested from tissue culture flasks and re-suspended in phosphate buffered saline (PBS) containing 1% bovine serum albumin and 1 mM CaCl₂ (FACS buffer). HEK293-hDLL4 or HEK293-mDLL4 cells were dispensed into 96-well plate (v-bottom) at 1.5×10⁵ cells/well in FACS buffer. […] After washing the cells two times with FACS buffer, 50 μL of R-phycoerythrin-conjugated streptavidin (1:150 dilution in FACS buffer) (Jackson ImmunoResearch, West Grove, Pa., US, catalog no. 016-110-084) were added. Following an incubation on ice (4° C., 60 minutes), cells were washed three times and resuspended in FACS buffer. Fluorescence was measured using a Becton Dickinson FACSCalibur-HTS (Becton Dickinson, San Jose. Calif.).

[8] = biological target: T6, human DLL4 on the cell surface; experiment: competition FACS, competitor huNotch-1
Experimental: as §4

[9] = biological target: T1, human DLL4 extracellular domain; experiment: competition ELISA, competitor huNotch-1
Experimental: (§5) Plates were then washed 3 times with wash buffer (PBS, 0.05% Tween-20) and blocked with 200 μl/well blocking buffer (D-PBS, 1% BSA, 1 mM CaCl₂, 0.05% Tween-20) for 1 hour at 25° C. […] Assay plates were washed after blocking, and incubated with DLL4/antibody mixtures (100 μl/well, 1 hour at 25° C. with shaking). […] After a final wash, plates were developed using 100 μl/well substrate (TMB Sigma # T8665), and the reaction was stopped after an 8-minute incubation at 25° C. (for muDLL4 ELISA) and after 20 minute incubation at 25° C. (for huDLL4 ELISA) using 100 μl/well 1N HCl, and the absorbance was read at 450 nm.

[10] = biological target: T2, mouse DLL4 extracellular domain; experiment: competition ELISA, competitor huNotch-1
Experimental: as §5

[11] = biological target: T1, human DLL4 extracellular domain; experiment: cell-based or functional assay
[12] = biological target: T6, human DLL4 on the cell surface; experiment: cell-based or functional assay
[13] = biological target: T6, human DLL4 on the cell surface; experiment: competition FACS, competitor huNotch-1; remark: listed apart in the source
Experimental: as §4

[14] = biological target: T1, human DLL4 extracellular domain; experiment: capture ELISA
Experimental: (§6) ELISA plates were washed 3 times with wash buffer (PBS, 0.05% Tween-20) and then blocked with 200 ml/well blocking buffer (D-PBS, 1% BSA, 1 mM CaCl₂, 0.05% Tween-20) for 1 hour at 25° C. Plates were washed 3 times and incubated with 100 μl/well DLL4 antibodies (0.0001-100 nM, 10-fold serial dilution in blocking buffer) for 1 hour at 25° C., and then washed again 3 times. […] The reaction was stopped after 2 minutes at 25° C. with 100 μl/well 2 N H2SO₄ and the absorbance was read at 450 nm. Data were analyzed using Graphpad Prism software and EC₅₀ values were reported.

[15] = biological target: T7, rat DLL4 extracellular domain (rat, UniProt D3ZHH1 28-530); experiment: Biacore SPR
T7 construct: extracellular domain; also called ratDLL4 ECD
Experimental: (§7) Binding of DLL4 antibodies to a purified recombinant DLL4 extracellular domain is determined by surface plasmon resonance-based measurements with a Biacore® instrument (either a Biacore 2000, Biacore 3000, or Biacore T100, GE Healthcare, Piscataway, N.J. US) using running buffer HBS-EPB (10 mM HEPES [pH 7.4], 150 mM NaCl, 3 mM EDTA, 0.1 mg/ml BSA and 0.005% surfactant P20) at 25° C. For example, approximately 9000 RU of goat anti-human Fc specific polyclonal antibody (Thermo Fisher Scientific Inc., Rockford, Ill., US) diluted in 10 mM sodium acetate (pH 4.5) is directly immobilized across a CM5 research grade biosensor chip using a standard amine coupling kit according to manufacturer's instructions and procedures at 25 μg/ml. Unreacted moieties on the biosensor surface are blocked with ethanolamine. For kinetic analysis, rate equations derived from the 1:1 Langmuir binding model are fitted simultaneously to multiple antigen injections (using global fit analysis) with the use of Scrubber 2 (BioLogic Software). […] The equilibrium dissociation constant KD (M) of the reaction between antibodies and the target antigen is then calculated from the kinetic rate constants by the following formula: KD=Koff/Kₒₙ. Binding is recorded as a function of time and kinetic rate constants are calculated. In this assay, on-rates as fast as 10⁶ M⁻¹s⁻¹ and off-rates as slow as 10⁻⁶ s⁻¹ can be measured.

[16] = biological target: T1, human DLL4 extracellular domain; experiment: Biacore SPR; remark: listed apart in the source
Experimental: as §7

[17] = biological target: T2, mouse DLL4 extracellular domain; experiment: Biacore SPR; remark: listed apart in the source
Experimental: as §7

[18] = biological target: T6, human DLL4 on the cell surface; experiment: FACS on DLL4 cells; remark: listed apart in the source
Experimental: as §3

[19] = biological target: T1, human DLL4 extracellular domain; experiment: competition ELISA, competitor huNotch-1; remark: listed apart in the source
Experimental: as §5

[20] = biological target: T5, mouse DLL4 on the cell surface; experiment: FACS on DLL4 cells; remark: listed apart in the source
[21] = biological target: T6, human DLL4 on the cell surface; experiment: FACS on DLL4 cells; remark: listed apart in the source
[22] = biological target: T1, human DLL4 extracellular domain; experiment: capture ELISA; remark: listed apart in the source
Experimental: as §6

[23] = biological target: T2, mouse DLL4 extracellular domain; experiment: capture ELISA
Experimental: as §6

[24] = biological target: T1, human DLL4 extracellular domain; experiment: Biacore SPR; remark: listed apart in the source
Experimental: as §7

[25] = biological target: T2, mouse DLL4 extracellular domain; experiment: Biacore SPR; remark: listed apart in the source
Experimental: as §7

[26] = biological target: T6, human DLL4 on the cell surface; experiment: cell-based or functional assay; remark: listed apart in the source
[27] = biological target: T5, mouse DLL4 on the cell surface; experiment: competition FACS, competitor huNotch-1; remark: listed apart in the source
Experimental: as §4

[28] = biological target: T6, human DLL4 on the cell surface; experiment: competition FACS, competitor huNotch-1; remark: listed apart in the source
Experimental: as §4

[29] = biological target: T1, human DLL4 extracellular domain; experiment: competition ELISA, competitor huNotch-1; remark: listed apart in the source
Experimental: as §5

[30] = biological target: T2, mouse DLL4 extracellular domain; experiment: competition ELISA, competitor huNotch-1; remark: listed apart in the source
Experimental: as §5

[31] = biological target: T1, human DLL4 extracellular domain; experiment: competition ELISA, competitor huNotch-1; remark: listed apart in the source
Experimental: as §5

[32] = biological target: T2, mouse DLL4 extracellular domain; experiment: competition ELISA, competitor huNotch-1; remark: listed apart in the source
Experimental: as §5

[33] = biological target: T1, human DLL4 extracellular domain; experiment: Biacore SPR; remark: listed apart in the source
Experimental: as §1

[34] = biological target: T2, mouse DLL4 extracellular domain; experiment: Biacore SPR; remark: listed apart in the source
Experimental: as §1

[35] = biological target: T3, human DLL4-his; experiment: ELISA on DLL4-his; remark: listed apart in the source
Experimental: as §2

[36] = biological target: T4, mouse DLL4-his; experiment: ELISA on DLL4-his; remark: listed apart in the source
Experimental: as §2

[37] = biological target: T5, mouse DLL4 on the cell surface; experiment: FACS on DLL4 cells; remark: listed apart in the source
Experimental: as §3

[38] = biological target: T6, human DLL4 on the cell surface; experiment: FACS on DLL4 cells; remark: listed apart in the source
Experimental: as §3

[39] = biological target: T5, mouse DLL4 on the cell surface; experiment: competition FACS, competitor huNotch-1; remark: listed apart in the source
Experimental: as §4

[40] = biological target: T6, human DLL4 on the cell surface; experiment: competition FACS, competitor huNotch-1; remark: listed apart in the source
Experimental: as §4

T5 sequence (Q9JI71 27-686): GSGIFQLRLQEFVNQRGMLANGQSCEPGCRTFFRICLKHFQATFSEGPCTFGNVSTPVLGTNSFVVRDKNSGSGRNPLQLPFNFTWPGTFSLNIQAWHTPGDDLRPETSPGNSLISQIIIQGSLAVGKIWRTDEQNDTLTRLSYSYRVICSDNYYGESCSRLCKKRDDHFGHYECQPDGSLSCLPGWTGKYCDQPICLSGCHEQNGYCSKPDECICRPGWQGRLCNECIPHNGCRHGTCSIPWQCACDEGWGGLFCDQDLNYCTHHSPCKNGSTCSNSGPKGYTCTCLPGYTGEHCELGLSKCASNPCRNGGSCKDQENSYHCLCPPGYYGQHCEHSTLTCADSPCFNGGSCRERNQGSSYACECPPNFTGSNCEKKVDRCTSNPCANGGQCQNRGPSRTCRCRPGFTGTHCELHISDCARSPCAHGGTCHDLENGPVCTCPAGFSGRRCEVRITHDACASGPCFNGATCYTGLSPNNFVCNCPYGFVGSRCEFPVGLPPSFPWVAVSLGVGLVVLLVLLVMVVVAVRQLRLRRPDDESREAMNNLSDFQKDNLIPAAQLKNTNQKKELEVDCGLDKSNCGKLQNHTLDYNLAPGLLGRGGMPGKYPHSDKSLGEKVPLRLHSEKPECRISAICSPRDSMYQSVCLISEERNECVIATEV
T4 sequence (Q9JI71 27-532): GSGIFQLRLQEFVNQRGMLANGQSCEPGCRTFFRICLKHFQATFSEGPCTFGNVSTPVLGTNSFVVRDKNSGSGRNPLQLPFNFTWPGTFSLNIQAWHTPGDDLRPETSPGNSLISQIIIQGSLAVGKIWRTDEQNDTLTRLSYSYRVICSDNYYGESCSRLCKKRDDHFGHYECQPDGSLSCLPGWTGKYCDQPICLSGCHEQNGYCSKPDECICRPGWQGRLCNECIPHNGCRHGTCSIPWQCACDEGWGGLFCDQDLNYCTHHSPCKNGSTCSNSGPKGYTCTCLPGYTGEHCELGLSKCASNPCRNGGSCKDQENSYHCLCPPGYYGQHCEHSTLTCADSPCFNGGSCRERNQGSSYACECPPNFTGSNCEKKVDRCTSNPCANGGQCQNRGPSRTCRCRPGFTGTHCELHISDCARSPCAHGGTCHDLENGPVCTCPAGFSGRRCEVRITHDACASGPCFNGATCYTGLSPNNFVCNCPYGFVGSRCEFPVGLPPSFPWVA
T2 sequence (Q9JI71 27-532): as above
T7 sequence (D3ZHH1 28-530): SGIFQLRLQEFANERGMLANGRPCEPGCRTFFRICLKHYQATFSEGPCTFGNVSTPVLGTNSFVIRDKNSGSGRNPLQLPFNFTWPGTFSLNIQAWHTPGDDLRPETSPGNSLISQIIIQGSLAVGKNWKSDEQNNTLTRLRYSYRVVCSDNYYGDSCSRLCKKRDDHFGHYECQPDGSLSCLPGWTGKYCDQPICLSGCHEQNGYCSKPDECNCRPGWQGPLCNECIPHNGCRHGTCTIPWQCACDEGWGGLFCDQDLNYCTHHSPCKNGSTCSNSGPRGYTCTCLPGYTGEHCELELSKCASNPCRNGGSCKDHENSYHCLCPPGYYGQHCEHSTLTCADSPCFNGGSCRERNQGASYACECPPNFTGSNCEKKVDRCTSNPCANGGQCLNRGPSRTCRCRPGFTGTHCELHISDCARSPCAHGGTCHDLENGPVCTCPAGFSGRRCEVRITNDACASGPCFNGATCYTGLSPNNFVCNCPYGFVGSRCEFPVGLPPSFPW

- sVEGFR1 Inhibition (IC50, nM) DLL4 ECD/EaHy cells, hu [11]: 1.5 nM
- Inhibition of Notch activation via huDLL4 cells, coculture (IC50, nM) [12]: 7.3 nM
- IC50 [13]: 4.4 nM
- EC50 [14]: 0.17 nM
- binding result [15]: no binding (tested: 900 nM DLL4)
- Kd [16]: 6.68 nM
- koff [16]: 0.00015 s⁻¹
- kon [16]: 22000 M⁻¹ s⁻¹
- binding result [17]: no binding (tested: 900 nM DLL4)
- EC50 [18]: 0.93 nM
- IC50 [19]: 2.6 nM
B2: A10 (antibody, IgG1, V domains shown)
VH: EVQLLESGGGLVKSGGSLRLSCAASGFTFRSHWMSWVRQAPGKGLEWVAIISYDGSNKYSADSVKGRFTISRDNSKNTLYLQLNSLRAEDTAVYYCAKAGGGNVGFDIWGQGTMVTVSS
VL: LPVLTQPPSVSVSPGQTASITCSADKLGTKYVSWYQQKPGQSPVLVIYQDAKRPSGIPERFSGSNSGNTATLTISGTQTMDEADYLCQSWDRSDVVFGGGTKVTVL
notes: also called anti-DLL4 PROfusion antibody A10

- EC50 [20]: 0.54 nM
- EC50 [21]: 2.79 nM
- EC50 [22]: 0.17 nM
- EC50 [23]: 0.17 nM
- Kd [24]: 0.69 nM
- koff [24]: 5.17e-05 s⁻¹
- kon [24]: 74900 M⁻¹ s⁻¹
- Kd [25]: 3.07 nM
- koff [25]: 0.000206 s⁻¹
- kon [25]: 67000 M⁻¹ s⁻¹
- Inhibition of Notch activation via huDLL4 cells, coculture (IC50, nM) [26]: 4.4 nM
- IC50 [27]: 0.44 nM
- IC50 [28]: 4.9 nM
- IC50 [29]: 1.8 nM
- IC50 [30]: 1.3 nM
B3: E9.19 (antibody, V domains shown)
VH: EVQLQESGPGLVKPSETLSLTCTVSGGSISSSSYYWGWIRQPPGKGLEWIGDIYYTGSTYYNPSLKSRVTISVDTSKNQFSLKLSSVTAADTAVYYCARFDVSLGGGSDTWGQGTLVTVSS
VL: SYELTQPPSVSVSPGQTASITCSGQRLGDKYASWYQQKPGQSPVLVIYEDSKRPSGIPERFSGSNSGDTATLTISGTQPMDEADYYCQAWDRDTGVFGYGTKVTVL
notes: also called DLL4-E9-19 hIgG1/L

- EC50 [20]: 0.35 nM
- EC50 [21]: 1.78 nM
- EC50 [22]: 0.16 nM
- EC50 [23]: 0.16 nM
- Kd [24]: 0.02 nM
- koff [24]: 7.9e-06 s⁻¹
- kon [24]: 356000 M⁻¹ s⁻¹
- Inhibition of Notch activation via huDLL4 cells, coculture (IC50, nM) [26]: 2.1 nM
- IC50 [27]: 0.34 nM
- IC50 [28]: 2.63 nM
- IC50 [29]: 2.3 nM
- IC50 [30]: 2.8 nM
B4: E9.2B (antibody, V domains shown)
VH: B3 VH with S33N, Y54N, T56N, S58N, F100E, D101A, S103A, S108A, T110D
VL: B3 VL with Q25E, R26G, A32V, K52T, R92S, D93E, Y99S

- EC50 [20]: 0.32 nM
- EC50 [21]: 1.82 nM
- EC50 [22]: 0.16 nM
- EC50 [23]: 0.17 nM
- Kd [24]: 0.91 nM
- koff [24]: 3.51e-05 s⁻¹
- kon [24]: 38800 M⁻¹ s⁻¹
- Kd [25]: 6.08 nM
- koff [25]: 0.000216 s⁻¹
- kon [25]: 35500 M⁻¹ s⁻¹
- Inhibition of Notch activation via huDLL4 cells, coculture (IC50, nM) [26]: 2.1 nM
- IC50 [27]: 0.24 nM
- IC50 [28]: 3.22 nM
- IC50 [29]: 2 nM
- IC50 [30]: 1.3 nM
B7: E9.71 (antibody, V domains shown)
VH: B3 VH with F100Q, D101A, V102L, S103A, L104M, T110K
VL: B3 VL
notes: also called DLL4-E9-71 hIgG1/L

The next lines start with the binder.

B1: E9-SE7 (antibody, V domains shown)
VH: EVQLVESGGGLVQPGGSLRLSCAVSGGSISSSSYYWGWIRQAPGKGLEWIGDIYYTGSTYYNPSLKSRVTISVDTSKNSFYLQMNSLRAEDTAVYYCAREDVILRGGSDYWGQGTLVTVSS
VL: EYVLTQSPDFQSVTPKEKVTITCSGQRLGDKYASWYQQKPDQSPKLVIYEDSKRPSGVPSRFSGSNSGDDATLTINSLEAEDAATYYCQAWDRDTGVFGQGTKVEIKR
notes: full-length human IgG1
- Kd [1]: 1.69 nM
- Kd [2]: 16.2 nM
- EC50 [3]: 0.17 nM
- EC50 [4]: 0.17 nM
- Kd [5]: 2.24 nM
- Kd [6]: 2.28 nM
- IC50 [7]: 1.94 nM
- IC50 [8]: 7.81 nM
- IC50 [9]: 2.4 nM
- IC50 [10]: 2.4 nM

B5: E9-SE3 (antibody, V domains shown)
VH: B3 VH with S15G, P42A, S81Y, T88R, A90E, F100E, S103I, G105R, T110Y
VL: SYELTQPPSVSVSPGQTASITCSGQRLGDKYASWYQQKPGQSPVLVIYEDSKRPSGIPERFSGSNSGDTATLTISGTQPMDEADYYCQAWDRDTGVFGYGTRVTVLG
notes: full-length human IgG1
- Kd [1]: 2.26 nM
- Kd [2]: 12.1 nM
- EC50 [3]: 0.18 nM
- EC50 [4]: 0.2 nM
- Kd [5]: 0.74 nM
- Kd [6]: 2.29 nM
- IC50 [7]: 1.25 nM
- IC50 [8]: 6.75 nM
- IC50 [9]: 2.5 nM
- IC50 [10]: 2.1 nM

B6: E9-SE6 (antibody, V domains shown)
VH: B3 VH with S15G, P42A, S81Y, T88R, A90E, F100E, S103I, G105R, T110Y
VL: B5 VL with S1L, E3V, P79T, Y86L, Y99G, R102K
notes: full-length human IgG1
- Kd [1]: 0.64 nM
- Kd [2]: 10 nM
- EC50 [3]: 0.17 nM
- EC50 [4]: 0.19 nM
- Kd [5]: 1.18 nM
- Kd [6]: 4.25 nM
- IC50 [7]: 1.53 nM
- IC50 [8]: 8.16 nM
- IC50 [9]: 2.5 nM
- IC50 [10]: 2.9 nM

B8: E9-FR2 (antibody, V domains shown)
VH: EVTLRESGPALVKPTQTLTLTCTVSGGSISSSSYYWGWIRQPPGKGLEWIGDIYYTGSTYYNPSLKSRVTISVDTSKNQFVLTMTNMDPVDTATYYCAREDVILRGGSDYWGQGTTVTVSS
VL: DYVLTQSPDSLAVSLGERATINCSGQRLGDKYASWYQQKPGQSPKLVIYEDSKRPSGIPDRFSGSNSGDDATLTISSLQAEDVAVYYCQAWDRDTGVFGGGTKVEIKR
notes: full-length human IgG1
- IC50 [31]: 1.52 nM
- IC50 [32]: 4.35 nM
- Kd [33]: 0.31 nM
- Kd [34]: 0.69 nM
- EC50 [35]: 0.105 nM
- EC50 [36]: 0.125 nM
- Kd [37]: 3.57 nM
- Kd [38]: 6.2 nM
- IC50 [39]: 1.07 nM
- IC50 [40]: 3.03 nM

B9: E9-FR1 (antibody, V domains shown)
VH: EVQLVQSGTEVKKPGESLKISCKVSGGSISSSSYYWGWIRQMPGKGLEWIGDIYYTGSTYYNPSLKSQVTISVDTSFNTFFLQWSSLKASDTAMYYCAREDVILRGGSDYWGQGTMVTVSS
VL: EYVLTQSPATLSVSPGERATLSCSGQRLGDKYASWYQQKPGQSPRLVIYEDSKRPSDIPARFSGSNSGDEATLTISSLQSEDFAVYYCQAWDRDTGVFGQGTRLEIKR
notes: full-length human IgG1
- IC50 [31]: 1.54 nM
- IC50 [32]: 3.35 nM
- Kd [33]: 0.72 nM
- Kd [34]: 1.6 nM
- EC50 [35]: 0.11 nM
- EC50 [36]: 0.13 nM
- Kd [37]: 2.51 nM
- Kd [38]: 4 nM
- IC50 [39]: 0.98 nM
- IC50 [40]: 1.57 nM
